The record followed here is publication PMC6138639, “The ZZ-type zinc finger of ZZZ3 modulates the ATAC complex-mediated histone acetylation and gene activation” (Nature Communications, 2018).

What all share (conditions): both partners purified
Assay [1] deals with T1, ZZZ3 ZZ domain (aa 816–874) (human, UniProt Q8IYH5 816-874).
T1 construct: 13C/15N isotope-labelled sample for the NMR structures
T1 sequence (looked up): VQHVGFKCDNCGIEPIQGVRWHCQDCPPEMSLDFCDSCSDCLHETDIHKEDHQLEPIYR
Put plainly: NMR structure; solution structure; 2 mM 13C/15N-labeled ZZZ3 (816–874) with 10 mM H3 (1–12) or 4 mM H3K4ac (1–8); 298 K; 20 mM Tris–HCl pH 7.0, 100 mM NaCl, 5 mM DTT.

Assay [2] concerns the target T2, ZZZ3 ZZ domain (aa 800–903), GST cleaved (human, UniProt Q8IYH5 800-903).
T2 construct: ZZ domain of human ZZZ3, aa 800–903; also called WT ZZZ3 ZZ; source: E. coli BL21 (DE3) RIL, purified (glutathione Sepharose, PreScission cleavage, size-exclusion chromatography)
T2 sequence (looked up): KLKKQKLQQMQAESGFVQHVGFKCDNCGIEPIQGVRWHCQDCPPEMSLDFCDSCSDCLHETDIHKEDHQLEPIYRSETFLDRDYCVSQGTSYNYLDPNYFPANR
Briefly: MST; displacement assay: unlabeled peptide added to a preformed complex of 5 μM ZZ (aa 800–903) and 80 nM C-terminal fluorescein-labeled H3 (1–12); 20 mM Tris–HCl pH 7.0, 150 mM NaCl, 3 mM DTT.

For assay [3], the target named is T3, GST-ZZZ3 ZZ domain (amino acids 800–903) (human, UniProt Q8IYH5 800-903).
T3 construct: ZZ-type zinc finger domain of human ZZZ3, amino acids 800–903, in pGEX-6P1; also called GST-fused ZZZ3 ZZ; source: E. coli BL21 (DE3) RIL, purified (glutathione Sepharose 4B)
T3 sequence (looked up): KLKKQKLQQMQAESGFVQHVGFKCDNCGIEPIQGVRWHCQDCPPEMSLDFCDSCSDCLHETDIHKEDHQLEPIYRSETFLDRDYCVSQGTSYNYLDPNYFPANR
Briefly: pull-down; peptide pulldown: 1 µg biotinylated histone peptide with 1–2 µg GST-fused protein in 50 mM Tris–HCl 7.5, 300 mM NaCl, 0.1% NP-40, overnight; streptavidin beads; western blot.

Where no end group is shown, it is not given here.

B1: unmodified histone H3 tail peptide (aa 1–12) (peptide, UniProt P68431 2-13, looked up)
peptide: ARTKQTARKSTG
notes: histone H3, aa 1–12; also called H3 (1–12); H3 peptide; source: synthetic peptide
As to B1, the binding result in assay [1] and in assay [2] was “binds” each time.

B2: H3K4ac peptide (aa 1–8) (peptide, UniProt P68431 2-9, looked up)
peptide: ARTK(Ac)QTAR
notes: histone H3, aa 1–8; also called H3K4ac (1–8); source: synthetic peptide
Regarding B2, the binding result in assay [1] is reported as “binds”.

B3: histone H3 peptide of the N-terminal eight amino acids, biotinylated (peptide, UniProt P68431 2-9, looked up)
peptide: ARTKQTAR
modifications: also: biotinylated, position not given here
notes: histone H3, N-terminal eight amino acids; also called The N-terminal eight amino acids of H3; source: synthetic peptide (CPC and Scilight Biotechnology)
B3: the binding result in assay [3] was “binds”.

B4: H3K4ac (1–12) peptide, unlabeled (peptide, UniProt P68431 2-13, looked up)
peptide: ARTK(Ac)QTARKSTG
notes: histone H3, aa 1–12; source: synthetic peptide
With B4, in assay [2], the “fold enhancement of binding over the unmodified H3 peptide” value came to 3 fold.
